Data taken from FireProtDB (doi:10.1006/jmbi.2000.3958).

Conditions: Schizosaccharomyces pombe (strain 972 / ATCC 24843); pH 7.5; 25 °C; Urea; Fluorescence; Tris 50 mM; whole UniProt chain shown

B1: Cyclin-dependent kinases regulatory subunit wild type, P08463 (protein)
chain: MSKSGVPRLLTASERERLEPFIDQIHYSPRYADDEYEYRHVMLPKAMLKAIPTDYFNPETGTLRILQEEEWRGLGITQSLGWEMYEVHVPEPHILLFKREKDYQMKFSQQRGG
With B1 the denaturant m value was 1.63 kcal/mol/M and the “denaturant midpoint (higher = more stable)” value was 4.42 M.
